Laboratory results reported in patent US20110014669A1, “Production of 1,4 Butanediol in a Microorganism” (Microbia, Inc., priority 2009, published 2011).

How the values were obtained:
Set-up in all cases: key: +: measureable activity detected in the assay; −: no measurable activity detected in the assay
[1] = test system: 5-hydroxy-2-oxopentanoate; assay: Bioconversion (feeding) assay, step A5; assay type: cell-based; conditions: BDO biosynthetic pathway step A5
Procedure: (§1) Bioconversion assays. The activity of a candidate enzyme towards a given substrate can also be evaluated in vivo using a simple feeding assay. A strain expressing the candidate enzyme is grown in the presence of the substrate for which activity is desired. Samples of the culture are removed periodically and the cells are removed via centrifugation. The culture supernatant is then analyzed (e.g., by LC-MS) to determine how much of the substrate has been removed and how much of a given product is present.
(§2) The aldehyde dehydrogenase linked reaction was used for step A5.

[2] = test system: 5-hydroxy-2-oxopentanoate; assay: Enzyme assay, decarboxylase (step A5), aldehyde dehydrogenase linked reaction; assay type: biochemical; conditions: BDO biosynthetic pathway step A5
Procedure: (§3) Enzyme expression and crude lysate preparation. The enzymatic activity of each candidate enzyme is evaluated, first in E. coli and subsequently in C. glutamicum. It will be apparent to one of skill in the art that the expression and lysate preparations may need to be modified depending on the host cell and recombinant gene of interest.
(§4) E. coli: E. coli strains transformed with expression clones, for example, pUC18 or MB4124 based clones having a medium strong constitutive promoter regulating the recombinant gene of interest, are grown aerobically in LB medium (Difco) containing the appropriate antibiotic(s). At an OD600 of 0.5, IPTG is added to a final concentration of 0.25 mM. The cultures are grown to a final OD600 of 1.5 at which time the cells are collected and harvested by centrifugation. Cell pellets are resuspended in BugBuster (Novagen) reagent containing benzonase and lysozyme. Alternatively, E. coli strains transformed with expression clones, are grown overnight aerobically at 37° C. in BHI containing the appropriate antibiotic(s). 300 μL of fresh overnight culture is used to inoculate 2.7 mL BHI containing 0.25 mM IPTG and the appropriate antibiotic. The cultures are grown aerobically for 4-5 hours at 37° C. at which time the cells are collected and harvested by centrifugation. Cell pellets are frozen at −80° C. for at least 15 minutes, then thawed and resuspended in BugBuster (Novagen) reagent. Lysis and lysate collection are performed according to the manufacturer's instructions and, for example, may involve use of a sonicator and/or French press. Cleared lysates are stored on ice until enzyme assays are performed.
(§5) C. glutamicum: C. glutamicum strains transformed with MB4124 expression clones containing the recombinant gene of interest are grown aerobically in BHI broth supplemented with the proper antibiotic(s). At an OD600 of 0.5, IPTG is added to a final concentration of 0.25 mM. The cultures are grown to a final OD600 of 1.5 at which time the cells are collected and harvested by centrifugation. The pellet is washed once in one volume of water and resuspended in lysis buffer (1.0 ml 1.0 M HEPES buffer, pH 7.5, 0.5 ml 1M KOH, 10 μl 0.5M EDTA, protease inhibitor cocktail, water to 5 ml; the final pH will vary depending on the individual enzyme being tested) and one volume of 0.1 mm acid washed glass beads. The mixture is repeatedly alternately vortexed and held on ice for 15 seconds, eight times. After centrifugation for 5 min at 4,000 rpm, the supernatant lysate is removed and respun for 20 min at 10,000 rpm. Alternatively, C. glutamicum strains transformed with MB4124 expression clones containing the recombinant gene of interest are grown aerobically overnight in BHI broth supplemented with the proper antibiotic(s). Five mL of fresh overnight culture is used to inoculate 200 mL BHI containing 0.25 mM IPTG and the appropriate antibiotic. The cultures are grown aerobically at 30° C. for 5-7 hours at which time the cells are collected and harvested by centrifugation at 4° C. The pellet is resuspended in 15 mL ice cold 39 mM KH2PO4, 61 mM K2HPO4, 0.5 M KCl and lysed using a BioSpec BeadBeater and following the manufacturer's instructions. The lysate is centrifuged at 16,000 RPM at 4° C. for 30 minutes and the supernatant retained on ice as the extract.
Protein Assays. Protein concentrations in lysates are determined according to the methods of Bradford et al. (Anal. Biochem. 72:248-254 [1976]) or by the method of Smith et al. (Anal. Biochem. 150(1):76-85 [1985]) and lysates are assayed according to the methods below.
Enzyme Assays. Enzyme assays are performed on the cell lysates prepared above. The activity for each recombinant enzyme is compared to a lysate from a vector only control culture which is generated in a fashion identical to the recombinant enzyme lysate. […]

[3] = test system: 5-hydroxy-2-oxopentanoate; assay: In vitro substrate conversion assay, step A5; assay type: biochemical; conditions: BDO biosynthetic pathway step A5
Procedure: (§6) In Vitro Substrate Conversion. Most of the enzyme assays described above are based on recording changes in absorbance at a given wavelength. In addition to such spectrophotometric readouts, these assays can also be analyzed by more direct methods using an endpoint assay where the reaction is terminated after a given period of time and the mixture is analyzed via HPLC or LC-MS methods.
as §2

[4] = test system: L-glutamate 5-semialdehyde (GSA); assay: Bioconversion (feeding) assay, step A3; assay type: cell-based; conditions: BDO biosynthetic pathway step A3
Procedure: as §1, §2

[5] = test system: L-glutamate 5-semialdehyde (GSA); assay: In vitro substrate conversion assay, step A3; assay type: biochemical; conditions: BDO biosynthetic pathway step A3
Procedure: as §6, §2

[6] = test system: L-glutamate 5-semialdehyde (GSA); assay: Enzyme assay, oxidoreductase (step A3), cell lysates; assay type: biochemical; conditions: BDO biosynthetic pathway step A3
Procedure: as §3, §4
as §5, with “The lysate is centrifuged at 16,000 RPM at 4° C. for 30 minutes and the supernatant retained on ice as the extract.” left out
Protein Assays. Protein concentrations in lysates are determined according to the methods of Bradford et al. (Anal. Biochem. 72:248-254 [1976]) or by the method of Smith et al. (Anal. Biochem. 150(1):76-85 [1985]) and lysates are assayed according to the methods below. […]

Row | Molecule | Bioconversion Assay [1] | Enzyme Assay [2] | In Vitro Substrate Conversion Assay [3] | Bioconversion Assay [4] | In Vitro Substrate Conversion Assay [5] | Enzyme Assay [6]
1 | PdcZm: Enzyme candidate for BDO biosynthetic pathway step A5, SEQ ID NO. 38 (protein, listed as Zymomonas mobilis) MSYTVGTYLAERLVQIGLKHHFAVAGDYNLVLLDNLLLNKNMEQVYCCNELNCGFSAEGYARAKGAAAAVVTYSVGALSAFDAIGGAYAENLPVILISGAPNNNDHAAGHVLHHALGKTDYHYQLEMAKNITAAAEAIYTPEEAPAKIDHVIKTALREKKPVYLEIACNIASMPCAAPGPASALFNDEASDEASLNAAVEETLKFIANRDKVAVLVGSKLRAAGAEEAAVKFADALGGAVATMAAAKSFFPEENPHYIGTSWGEVSYPGVEKTMKEADAVIALAPVFNDYSTTGWTDIPDPKKLVLAEPRSVVVNGIRFPSVHLKDYLTRLAQKVSKKTGALDFFKSLNAGELKKAAPADPSAPLVNAEIARQVEALLTPNTTVIAETGDSWFNAQRMKLPNGARVEYEMQWGHIGWSVPAAFGYAVGAPERRNILMVGDGSFQLTAQEVAQMVRLKLPVIIFLINNYGYTIEVMIHDGPYNNIKNWDYAGLMEVFNGNGGYDSGAGKGLKAKTGGELAEAIKVALANTDGPTLIECFIGREDCTEELVKWGKRVAAANSRKPVNKLL | − | − | − |  |  | 
2 | NosEAv: Enzyme candidate for BDO biosynthetic pathway step A3, SEQ ID NO. 20 (protein, listed as Anabaena variabilis) MPKAAVMSAPNQPVVVQQLPDPILEKGGIIVETLYSEVCGTDVHLLHGRLEGVPYPIIPGHFSVGRVVETGGAVSDVNSNLIQPGAIATFLDVHETCYNCWYCLVAKASTRCPQRKVYGVTYSAKEGLLGGWSELIYLKPGVKVLTLPAEVSPKQFIAGGCALPTALHAIDRAQIQIGDVVVVQGCGPVGLSVAILALLSGAGKVIVIDKFESRLAVAKSFGVDETLAIKADDPRQHIERVLELTNGHGADVIIEATGIPIAVKEGLNMTRNGGRYVIVGHYTNTGEILINPHLEINLKHIDIRGTWGIDFSHFYRMIELLKRHSDPKKNIAWENLISRSYTLNEINQALTDVERGSVLKAVIQPNLS |  |  |  | + | + | −
3 | NosEN: Enzyme candidate for BDO biosynthetic pathway step A3, SEQ ID NO. 16 (protein, listed as Nostoc sp.) MPLAAVMTAPNQPVEVQQLPDPILEKGGIILETLYSEVCGTDVHLLHGRLEGVPYPIIPGHFSVGRVVETGGAVSDVNGKLIQPGAIATFLDVHETCYNCWYCLVAKASTRCPQRKVYGVTYSAKDGLLGGWSELIYLKPGVKVLTLPEEVSPKQFIAGGCALPTALHAIDRAQIQIGDVVVVQGCGPVGLSAAILALLSGAGKVIVIDKFESRLVVAKSFGVDETLAIKADDPRQHIERVLELTNGHGADVTIEATGIPIAVKEGLNMTRNGGRYVIVGHYTNTGEILINPHLEINLKHIDIRGTWGIDFSHFYRMIELLKRHSDSSKNIAWSSIISRSYTLKEINQALADVEQGSVLKAVIQPNLS |  |  |  | + | + | −
4 | NosENp: nosE alcohol dehydrogenase from Nostoc punctiforme, step A3 enzyme candidate, SEQ ID NO. 18 (protein, Nostoc punctiforme) MPLAAVMTAPNQPVEVQQLPEPILEKGGIIIETLYSEVCGTDVHLLHGRLEGVPYPIIPGHFSVGRVVETGGAVSDVNGKLIQPGAIATFLDVHETCYNCWYCLVAKASTRCPKRKVYGVTYSAKDGLLGGWSELIYLKPGVKVLTLPEEVSPKQFIAGGCALPTALHAIDRAQIQIGDVVVVQGCGPVGLSAAILALLSGAGKVIVIDKFESRLVVAKSFGVDETLAIRADDPRQHIERVLELTNGHGADVTIEATGIPIAVKEGLNMTRNGGRYVIVGHYTNTGEILINPHLEINLKHIDIRGTWGIDFSHFYRMIELLKRHSDSSKNIAWSSIISRSYTLKEINQALVDVEQGSVLKAVIQPNLS |  |  |  | + | + | +
5 | PdcSs: Enzyme candidate for BDO biosynthetic pathway step A5, SEQ ID NO. 41 (protein, listed as Staphylococcus saprophyticus) MKKRVGQYLMDCISDVGVDKVFGVPGDFNLTFLDDIISRDDMEWIGNTNELNASYAADGYARMKGIAAMVTTFGVGELSAVNGIAGSYAERVPVIQITGAPTRAVESAGKYVHHSLGEGNFDDYRNMYASITTAQAYITPENAQSEIPRVINAALYEKRPVHIHLPIDVANSEIDVATPFEIEQRPQTDVTKYMTMVKDKLQSADKPVIITGHEINSFKLHEKLEQFVKQSQIPVVQLSLGKGAFNETSPYYMGIYDASLAEEDIRNYVDQSDAILNIGAKLTDSATAGYSYQFDIDDVVMINHHHFKMNETKDTEVSLVDLLDGLNAINYVNNAEFPKFKQPKAHDYDLTDEPLTQETYFKMMQDFIREEDVILAEQGTSFFGAYDLALKHNNKFIGQPLWGSIGYTLPATLGTQMADTSRRNLLLIGDGSLQLTVQEISTMIREKIKPIIFVINNDGYTVERKIHGENAMYNDIKMWDYKLLPTVFGGKDEVQVHDVNTSEAFQKVLLQIEAQPDTMHFIEVKMGVHDAPHKLNAIGQAFAKQNG | − | − | − |  |  | 
6 | PdcBc: Enzyme candidate for BDO biosynthetic pathway step A5, SEQ ID NO. 42 (protein, listed as Bacillus cereus) MKKQYTVSTYLLDRLHELGIEHIFGVPGDYNLAFLDDVVAHENLKWIGNCNELNAAYAADGYARIKGIAALITTFGVGELSAINGIAGSYAENVPVIKITGTPPTKVMENGAIVHHTLGDGKFDHFSNMYREITVAQTNVTPEHAAEEIDRVLRACWNEKRPVHINLPIDVYNKPINKPTEPIINKPILSNKEALNKMLLHAISKINSAKKPVILADFEVDRFHAKENLHQFVEKTGFPIATLSMGKGIFPEKHPQFIGIYTGDVSSPYLRKRIDESDCIISIGVKLTDTITGGFTQGFTKEQVIEIHPYTVKIIDKKYGPVVMQDVLQHLSDSIEHRNKDTLDVKPFILESSPFTEEFIPKAQMVTQKRFWQQMYHFLQENDVLIVEQGTPFFGSSAIPLPNNTAYVGQPLWGSIGYTLPALLGTQLANLSRRNILIIGDGSFQVTAQELSTILRQNLKPIIFLINNNGYTVERAIHGQNQLYNDIQMWDYNKLSMVFGAEEKSLTFKVENEAELAAVLTNITFNKNQLIFIEVIMSQSDQPELLAKLGKRSGQQNS | − | − | − |  |  | 
